Values of other authors, collected in paper PMC8790524.
pKd: −log10 of the molar value.

Experiments:
[1] = target: IL12Rβ1 ECD (Homo sapiens) (UniProt P42701); assay: ITC
IL23R ECD (Homo sapiens) = IL23R ECD (Homo sapiens) (UniProt Q5VWK5); assay: ITC
Sequence of IL23R ECD (Homo sapiens) (Q5VWK5 24-355): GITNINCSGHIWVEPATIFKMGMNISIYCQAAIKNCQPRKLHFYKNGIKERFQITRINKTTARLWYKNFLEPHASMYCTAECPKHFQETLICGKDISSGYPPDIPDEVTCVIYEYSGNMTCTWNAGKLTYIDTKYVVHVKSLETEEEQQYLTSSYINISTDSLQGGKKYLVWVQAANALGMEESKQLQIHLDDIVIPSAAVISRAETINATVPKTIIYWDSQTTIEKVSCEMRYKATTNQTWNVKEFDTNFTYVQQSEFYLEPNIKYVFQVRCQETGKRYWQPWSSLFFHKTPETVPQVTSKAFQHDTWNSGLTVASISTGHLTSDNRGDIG

Sequence of IL-23 (Q9NPF7 20-189): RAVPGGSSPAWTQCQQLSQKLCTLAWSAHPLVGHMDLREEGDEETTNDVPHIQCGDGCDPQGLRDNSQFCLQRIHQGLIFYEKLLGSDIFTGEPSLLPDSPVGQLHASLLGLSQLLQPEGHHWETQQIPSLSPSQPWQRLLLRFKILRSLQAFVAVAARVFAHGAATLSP
Sequence of IL-23 (P29460 23-328, further chain): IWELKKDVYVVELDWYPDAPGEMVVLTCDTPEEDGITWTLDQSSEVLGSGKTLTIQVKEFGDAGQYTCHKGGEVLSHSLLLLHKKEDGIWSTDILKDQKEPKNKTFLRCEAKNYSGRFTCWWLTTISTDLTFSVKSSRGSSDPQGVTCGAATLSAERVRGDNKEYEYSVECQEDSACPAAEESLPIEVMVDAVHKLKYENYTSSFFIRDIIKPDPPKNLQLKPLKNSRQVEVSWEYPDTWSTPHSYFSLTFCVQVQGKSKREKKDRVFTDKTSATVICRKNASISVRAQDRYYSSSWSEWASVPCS

pKd [1]: 5.70
pKd (IL23R ECD (Homo sapiens)): 7.36
Substance: IL-23 (from UniProt Q9NPF7)
